Values quoted from earlier work in publication PMC10178479.

Biological target: Mint2 (Homo sapiens) (UniProt Q99767)
UniProt Q99767, sequence (Q99767 whole entry): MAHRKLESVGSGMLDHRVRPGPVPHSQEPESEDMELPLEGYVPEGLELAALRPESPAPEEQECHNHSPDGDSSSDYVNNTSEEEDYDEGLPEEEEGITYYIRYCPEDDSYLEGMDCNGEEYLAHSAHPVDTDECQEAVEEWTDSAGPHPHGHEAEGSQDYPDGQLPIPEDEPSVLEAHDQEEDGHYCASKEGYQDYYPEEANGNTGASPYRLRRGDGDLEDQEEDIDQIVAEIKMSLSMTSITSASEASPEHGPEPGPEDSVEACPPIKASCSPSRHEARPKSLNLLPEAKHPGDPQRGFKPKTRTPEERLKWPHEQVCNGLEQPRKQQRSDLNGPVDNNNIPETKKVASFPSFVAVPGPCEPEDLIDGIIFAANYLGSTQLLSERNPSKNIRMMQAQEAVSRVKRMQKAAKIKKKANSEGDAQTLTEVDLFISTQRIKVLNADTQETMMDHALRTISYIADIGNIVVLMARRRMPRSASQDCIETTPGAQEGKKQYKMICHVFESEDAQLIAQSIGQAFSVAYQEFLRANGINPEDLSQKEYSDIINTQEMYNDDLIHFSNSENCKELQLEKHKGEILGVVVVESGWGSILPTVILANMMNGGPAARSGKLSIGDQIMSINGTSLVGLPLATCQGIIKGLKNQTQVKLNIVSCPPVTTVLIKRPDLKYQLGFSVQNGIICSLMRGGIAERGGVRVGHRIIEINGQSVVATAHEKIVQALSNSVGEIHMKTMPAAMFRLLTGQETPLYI

## APP peptide (APPWT)
  Ki: 4 µM
